Where two headings read alike, the source gives them in different places.
Columns and labels:
[1] = molecular target: T1, human VEGF165 ligand (human, UniProt P15692-4 27-191); experiment: serial dilution mixed with 50 pM human VEGF165 in solution, unbound VEGF165 measured by ELISA
T1 construct: also called VEGF-A165
Description: The amount of unbound VEGF₁₆₅ was then measured by a human VEGF-specific ELISA (Human VEGF DuoSet ELISA kit, R&D Systems, CAT. No. DY293B-05).
(§1) Unbound human VEGF₁₆₅ or PDGF-BB was calculated using 4 parameters curve with the absorbance value. And the IC₅₀ of the tested fusion proteins and the reference was calculated using 4 parameters curve with unbound human VEGF₁₆₅ or PDGF-BB.

[2] = molecular target: T2, human PDGF-BB ligand (human, UniProt P01127 82-190); experiment: serial dilution mixed with 1 ng/ml human PDGF-BB in solution, unbound PDGF-BB measured by ELISA
T2 sequence (P01127 82-190): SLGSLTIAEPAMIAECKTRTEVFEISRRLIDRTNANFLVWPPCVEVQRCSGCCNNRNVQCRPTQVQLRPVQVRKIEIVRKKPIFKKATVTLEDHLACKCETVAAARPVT
Description: The amount of unbound PDGF-BB was then measured by a human PDGF-BB-specific ELISA (Human PDGF-BB DuoSet ELISA kit, R&D Systems, CAT. No. DY220).
as §1

[3] = molecular target: T1, human VEGF165 ligand; experiment: cell-based or functional assay
[4] = molecular target: T1, human VEGF165 ligand; experiment: cell-based or functional assay; remark: listed apart in the source
[5] = molecular target: T2, human PDGF-BB ligand; experiment: native PAGE electromobility gel shift; alone or together with VEGF165
Description: EPS1104P was mixed with VEGF₁₆₅ (#C083, Novoprotein, Shanghai, China), PDGF-BB (#C199, Novoprotein, Shanghai, China) and VEGF+PDGF-BB, and incubated in an ice bath for 30 min. 40 μL of the above three incubation mixtures and EPS1104P were added to 10 μl of 5× Loading buffer (#ES005, Wanshenghaotian, Shanghai, China), respectively, and the four samples were loaded on a native PAGE gel (#NGSH2001-8T, Wanshenghaotian, Shanghai, China). The electrophoresis was run at 70 V for 6 hours. The gel was stained with Coomassie blue and then bleached. […] It is also possible to combine EPS1104P with both VEGF165 and PDGF-BB to form a stable complex.

T1 sequence (P15692 other isoform, or with tags, fused parts or gaps limits assumed): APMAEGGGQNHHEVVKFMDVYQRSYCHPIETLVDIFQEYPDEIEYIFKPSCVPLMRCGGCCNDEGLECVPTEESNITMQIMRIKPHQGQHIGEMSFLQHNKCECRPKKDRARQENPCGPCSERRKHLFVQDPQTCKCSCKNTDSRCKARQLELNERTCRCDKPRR

Row | Binder | IC50 [1] [nM] | IC50 [2] [nM] | Inhibition of HUVEC cells proliferation, IC50 [3] [nM] | Inhibition of HUVEC cells proliferation, IC50 [4] [nM] | binding result [5]
1 | PDGFRαD123-PAS(200)-VEGFR1D2/R2D3 fusion protein (receptor, glycosylated (as purified from MEXi-293E medium), also called EPS1108P) QLSLPSILPNENEKVVQLNSSFSLRCFGESEVSWQYPMSEEESSDVEIRNEENNSGLFVTVLEVSSASAAHTGLYTCYYNHTQTEENELEGRHIYIYVPDPDVAFVPLGMTDYLVIVEDDDSAIIPCRTTDPETPVTLHNSEGVVPASYDSRQGFNGTFTVGPYICEATVKGKKFQTIPFNVYALKATSELDLEMEALKTVYKSGETIVVTCAVFNNEVVDLQWTYPGEVKGKGITMLEEIKVPSIKLVYTLTVPEATVKDSGDYECAARQATREVKEMKKVTISVHEKGASPAAPAPASPAAPAPSAPAASPAAPAPASPAAPAPSAPAASPAAPAPASPAAPAPSAPAASPAAPAPASPAAPAPSAPAASPAAPAPASPAAPAPSAPAASPAAPAPASPAAPAPSAPAASPAAPAPASPAAPAPSAPAASPAAPAPASPAAPAPSAPAASPAAPAPASPAAPAPSAPAASPAAPAPASPAAPAPSAPAASDTGRPFVEMYSEIPEIIHMTEGRELVIPCRVTSPNITVTLKKFPLDTLIPDGKRIIWDSRKGFIISNATYKEIGLLTCEATVNGHLYKTNYLTHRQTNTIIDVVLSPSHGIELSVGEKLVLNCTARTELNVGIDFNWEYPSSKHQHKKLVNRDLKTQSGSEMKKFLSTLTIDGVTRSDQGLYTCAASSGLMTKKNSTFVRVHEKHHHHHHA | 0.32 | 66.3 | 28.5 | – | –
2 | VEGFR1D2/R2D3-PAS(200)-PDGFRαD123 (receptor, also called EPS1105P) SDTGRPFVEMYSEIPEIIHMTEGRELVIPCRVTSPNITVTLKKFPLDTLIPDGKRIIWDSRKGFIISNATYKEIGLLTCEATVNGHLYKTNYLTHRQTNTIIDVVLSPSHGIELSVGEKLVLNCTARTELNVGIDFNWEYPSSKHQHKKLVNRDLKTQSGSEMKKFLSTLTIDGVTRSDQGLYTCAASSGLMTKKNSTFVRVHEKASPAAPAPASPAAPAPSAPAASPAAPAPASPAAPAPSAPAASPAAPAPASPAAPAPSAPAASPAAPAPASPAAPAPSAPAASPAAPAPASPAAPAPSAPAASPAAPAPASPAAPAPSAPAASPAAPAPASPAAPAPSAPAASPAAPAPASPAAPAPSAPAASPAAPAPASPAAPAPSAPAASPAAPAPASPAAPAPSAPAQLSLPSILPNENEKVVQLNSSFSLRCFGESEVSWQYPMSEEESSDVEIRNEENNSGLFVTVLEVSSASAAHTGLYTCYYNHTQTEENELEGRHIYIYVPDPDVAFVPLGMTDYLVIVEDDDSAIIPCRTTDPETPVTLHNSEGVVPASYDSRQGFNGTFTVGPYICEATVKGKKFQTIPFNVYALKATSELDLEMEALKTVYKSGETIVVTCAVFNNEVVDLQWTYPGEVKGKGITMLEEIKVPSIKLVYTLTVPEATVKDSGDYECAARQATREVKEMKKVTISVHEKGHHHHHH | 0.546 | – | 28.4 | – | –
3 | PDGFRαD123-(GGGGS)3-PAS(200)-(GGGGS)3-VEGFR1D2/R2D3 (receptor, also called EPS1106P) QLSLPSILPNENEKVVQLNSSFSLRCFGESEVSWQYPMSEEESSDVEIRNEENNSGLFVTVLEVSSASAAHTGLYTCYYNHTQTEENELEGRHIYIYVPDPDVAFVPLGMTDYLVIVEDDDSAIIPCRTTDPETPVTLHNSEGVVPASYDSRQGFNGTFTVGPYICEATVKGKKFQTIPFNVYALKATSELDLEMEALKTVYKSGETIVVTCAVFNNEVVDLQWTYPGEVKGKGITMLEEIKVPSIKLVYTLTVPEATVKDSGDYECAARQATREVKEMKKVTISVHEKGGGGGSGGGGSGGGGSASPAAPAPASPAAPAPSAPAASPAAPAPASPAAPAPSAPAASPAAPAPASPAAPAPSAPAASPAAPAPASPAAPAPSAPAASPAAPAPASPAAPAPSAPAASPAAPAPASPAAPAPSAPAASPAAPAPASPAAPAPSAPAASPAAPAPASPAAPAPSAPAASPAAPAPASPAAPAPSAPAASPAAPAPASPAAPAPSAPAGGGGSGGGGSGGGGSSDTGRPFVEMYSEIPEIIHMTEGRELVIPCRVTSPNITVTLKKFPLDTLIPDGKRIIWDSRKGFIISNATYKEIGLLTCEATVNGHLYKTNYLTHRQTNTIIDVVLSPSHGIELSVGEKLVLNCTARTELNVGIDFNWEYPSSKHQHKKLVNRDLKTQSGSEMKKFLSTLTIDGVTRSDQGLYTCAASSGLMTKKNSTFVRVHEKHHHHHH | 0.555 | – | 39.7 | – | –
4 | VEGFR1D2/R2D3-(GGGGS)3-PAS(200)-(GGGGS)3-PDGFRαD123 (receptor, also called EPS1107P) SDTGRPFVEMYSEIPEIIHMTEGRELVIPCRVTSPNITVTLKKFPLDTLIPDGKRIIWDSRKGFIISNATYKEIGLLTCEATVNGHLYKTNYLTHRQTNTIIDVVLSPSHGIELSVGEKLVLNCTARTELNVGIDFNWEYPSSKHQHKKLVNRDLKTQSGSEMKKFLSTLTIDGVTRSDQGLYTCAASSGLMTKKNSTFVRVHEKGGGGSGGGGSGGGGSASPAAPAPASPAAPAPSAPAASPAAPAPASPAAPAPSAPAASPAAPAPASPAAPAPSAPAASPAAPAPASPAAPAPSAPAASPAAPAPASPAAPAPSAPAASPAAPAPASPAAPAPSAPAASPAAPAPASPAAPAPSAPAASPAAPAPASPAAPAPSAPAASPAAPAPASPAAPAPSAPAASPAAPAPASPAAPAPSAPAGGGGSGGGGSGGGGSQLSLPSILPNENEKVVQLNSSFSLRCFGESEVSWQYPMSEEESSDVEIRNEENNSGLFVTVLEVSSASAAHTGLYTCYYNHTQTEENELEGRHIYIYVPDPDVAFVPLGMTDYLVIVEDDDSAIIPCRTTDPETPVTLHNSEGVVPASYDSRQGFNGTFTVGPYICEATVKGKKFQTIPFNVYALKATSELDLEMEALKTVYKSGETIVVTCAVFNNEVVDLQWTYPGEVKGKGITMLEEIKVPSIKLVYTLTVPEATVKDSGDYECAARQATREVKEMKKVTISVHEKGHHHHHH | 0.304 | – | 53.1 | – | –
5 | PDGFRαD123-PAS(400)-VEGFR1D2/R2D3 (receptor, also called EPS1104P) QLSLPSILPNENEKVVQLNSSFSLRCFGESEVSWQYPMSEEESSDVEIRNEENNSGLFVTVLEVSSASAAHTGLYTCYYNHTQTEENELEGRHIYIYVPDPDVAFVPLGMTDYLVIVEDDDSAIIPCRTTDPETPVTLHNSEGVVPASYDSRQGFNGTFTVGPYICEATVKGKKFQTIPFNVYALKATSELDLEMEALKTVYKSGETIVVTCAVFNNEVVDLQWTYPGEVKGKGITMLEEIKVPSIKLVYTLTVPEATVKDSGDYECAARQATREVKEMKKVTISVHEKGASPAAPAPASPAAPAPSAPAASPAAPAPASPAAPAPSAPAASPAAPAPASPAAPAPSAPAASPAAPAPASPAAPAPSAPAASPAAPAPASPAAPAPSAPAASPAAPAPASPAAPAPSAPAASPAAPAPASPAAPAPSAPAASPAAPAPASPAAPAPSAPAASPAAPAPASPAAPAPSAPAASPAAPAPASPAAPAPSAPAASPAAPAPASPAAPAPSAPAASPAAPAPASPAAPAPSAPAASPAAPAPASPAAPAPSAPAASPAAPAPASPAAPAPSAPAASPAAPAPASPAAPAPSAPAASPAAPAPASPAAPAPSAPAASPAAPAPASPAAPAPSAPAASPAAPAPASPAAPAPSAPAASPAAPAPASPAAPAPSAPAASPAAPAPASPAAPAPSAPASDTGRPFVEMYSEIPEIIHMTEGRELVIPCRVTSPNITVTLKKFPLDTLIPDGKRIIWDSRKGFIISNATYKEIGLLTCEATVNGHLYKTNYLTHRQTNTIIDVVLSPSHGIELSVGEKLVLNCTARTELNVGIDFNWEYPSSKHQHKKLVNRDLKTQSGSEMKKFLSTLTIDGVTRSDQGLYTCAASSGLMTKKNSTFVRVHEKHHHHHH | 0.495 | – | – | 1.43 | binds
